Assay results as given in article PMC11329664.

Biological target: Alexa Fluor 488-conjugated human CD40-CA-His12 (ectodomain of human CD40) (human)
Test: scanning fluorescence correlation spectroscopy with brightness-transit statistics (sFCS BTS); CD40-AF488-His tethered through Ni-NTA-DGS to a BSA-blocked supported lipid bilayer, titrated to higher surface densities (100 and 175 molecules/µm^2); brightness and transit time compared with the monomeric control AF488-His; 24 °C

stoichiometry N: > 2
Substance: Alexa Fluor 488-conjugated human CD40-CA-His12 (ectodomain of human CD40) (domain or fragment)
